Reference: paper PMC9815587, “The structure of the human LACTB filament reveals the mechanisms of assembly and membrane binding” (PLOS Biology, 2022)
Where a chain is given by its changes, count along the chain named.

B1: human LACTB (residues 97 to 547), wild-type (enzyme, UniProt P83111 97-547, looked up)
chain: APPCSRCFARAIESSRDLLHRIKDEVGAPGIVVGVSVDGKEVWSEGLGYADVENRVPCKPETVMRIASISKSLTMVALAKLWEAGKLDLDIPVQHYVPEFPEKEYEGEKVSVTTRLLISHLSGIRHYEKDIKKVKEEKAYKALKMMKENVAFEQEKEGKSNEKNDFTKFKTEQENEAKCRNSKPGKKKNDFEQGELYLREKFENSIESLRLFKNDPLFFKPGSQFLYSTFGYTLLAAIVERASGCKYLDYMQKIFHDLDMLTTVQEENEPVIYNRARFYVYNKKKRLVNTPYVDNSYKWAGGGFLSTVGDLLKFGNAMLYGYQVGLFKNSNENLLPGYLKPETMVMMWTPVPNTEMSWDKEGKYAMAWGVVERKQTYGSCRKQRHYASHTGGAVGASSVLLVLPEELDTETINNKVPPRGIIVSIICNMQSVGLNSTALKIALEFDKDRSD
notes: human LACTB (serine beta-lactamase-like protein, mitochondrial), residues 97 to 547 of the gene product of residues 1 to 547; Assembles into helical filaments of stacked antiparallel dimers; number of copies not fixed; also called WT LACTB; serine beta-lactamase-like protein; source: E. coli BL21(DE3)-RIPL, purified (Ni-NTA, tag removed with Ulp1, SEC on Superose 6 Increase); not shown: His6, …
B2: human LACTB (residues 97 to 547) with the flexible loop region (residues K255 to K284) replaced by a GGS linker (enzyme)
chain: APPCSRCFARAIESSRDLLHRIKDEVGAPGIVVGVSVDGKEVWSEGLGYADVENRVPCKPETVMRIASISKSLTMVALAKLWEAGKLDLDIPVQHYVPEFPEKEYEGEKVSVTTRLLISHLSGIRHYEKDIKKVKEEKAYKALKMMKENVAFEQEKEGGGSNDFEQGELYLREKFENSIESLRLFKNDPLFFKPGSQFLYSTFGYTLLAAIVERASGCKYLDYMQKIFHDLDMLTTVQEENEPVIYNRARFYVYNKKKRLVNTPYVDNSYKWAGGGFLSTVGDLLKFGNAMLYGYQVGLFKNSNENLLPGYLKPETMVMMWTPVPNTEMSWDKEGKYAMAWGVVERKQTYGSCRKQRHYASHTGGAVGASSVLLVLPEELDTETINNKVPPRGIIVSIICNMQSVGLNSTALKIALEFDKDRSD
notes: human LACTB, residues 97 up to the residue before K255; GGS linker in place of K255 to K284; human LACTB, from the residue after K284 to 547; also called ΔL6; flexible loop deletion; source: E. coli BL21(DE3)-RIPL, purified (Ni-NTA, tag removed with Ulp1, SEC on Superose 6 Increase); not shown: His6, N-terminal, cleaved; SUMO, N-terminal, cleaved
B3: human LACTB (residues 97 to 547) with the L15 loop (V467 to Y482) replaced by a GGS linker (enzyme)
chain: APPCSRCFARAIESSRDLLHRIKDEVGAPGIVVGVSVDGKEVWSEGLGYADVENRVPCKPETVMRIASISKSLTMVALAKLWEAGKLDLDIPVQHYVPEFPEKEYEGEKVSVTTRLLISHLSGIRHYEKDIKKVKEEKAYKALKMMKENVAFEQEKEGKSNEKNDFTKFKTEQENEAKCRNSKPGKKKNDFEQGELYLREKFENSIESLRLFKNDPLFFKPGSQFLYSTFGYTLLAAIVERASGCKYLDYMQKIFHDLDMLTTVQEENEPVIYNRARFYVYNKKKRLVNTPYVDNSYKWAGGGFLSTVGDLLKFGNAMLYGYQVGLFKNSNENLLPGYLKPETMVMMWTPVPNTEMSWDKEGKYAMAWGVGGSASHTGGAVGASSVLLVLPEELDTETINNKVPPRGIIVSIICNMQSVGLNSTALKIALEFDKDRSD
notes: human LACTB, residues 97 up to the residue before V467; glycine-glycine-serine (GGS) linker in place of V467 to Y482; human LACTB, from the residue after Y482 to 547; also called L15 loop replacement; removal of the L15 loop; source: E. coli BL21(DE3)-RIPL, purified (Ni-NTA, tag removed with Ulp1, SEC on Superose 6 Increase); not shown: His6, N-terminal, cleaved; SUMO, N-terminal, cleaved
B4: human LACTB (residues 97 to 547) 274ExExxExxEEE284 mutant (enzyme, UniProt P83111 97-547, looked up)
chain: B1 chain with K178E, R180E, K183E, K186E, K187E, K188E
notes: human LACTB, residues 97 to 547, motif 274KxRxxKxxKKK284 changed to 274ExExxExxEEE284; single changes counted out from the printed motifs; source: E. coli BL21(DE3)-RIPL, purified (Ni-NTA, tag removed with Ulp1, SEC on Superose 6 Increase); not shown: His6, N-terminal, cleaved; SUMO, N-terminal, cleaved
B5: human LACTB (residues 97 to 547) R117E (enzyme, UniProt P83111 97-547, looked up)
chain: B1 chain with R21E
notes: human LACTB, residues 97 to 547, polymer interface 1 charge-reversal mutant; source: E. coli BL21(DE3)-RIPL, purified (Ni-NTA, tag removed with Ulp1, SEC on Superose 6 Increase); not shown: His6, N-terminal, cleaved; SUMO, N-terminal, cleaved
B6: human LACTB (residues 97 to 547) 259EAxAxEAE266 mutant (enzyme, UniProt P83111 97-547, looked up)
chain: B1 chain with K163E, N164A, F166A, K168E, F169A, K170E
notes: human LACTB, residues 97 to 547, motif 259KNxFxKFK266 changed to 259EAxAxEAE266; single changes counted out from the printed motifs; source: E. coli BL21(DE3)-RIPL, purified (Ni-NTA, tag removed with Ulp1, SEC on Superose 6 Increase); not shown: His6, N-terminal, cleaved; SUMO, N-terminal, cleaved

Biological target: the molecule itself
Test: SEC; Superose 6 Increase 10/300 GL; 20 mM HEPES-NaOH (pH 7.5), 140 mM NaCl, 10 mM KCl, 1 mM MgCl2, 1 mM DTT; self-assembly, filaments elute within the void volume

Binding result, binds:
B1

Biological target: the molecule itself
Test: negative-stain TEM; SEC peak fractions diluted to approximately 2.0 μm (so in the source), 0.75% uranyl formate, Tecnai T12 at 100 kV; self-assembly into filaments

Binding result, binds:
B2
B3
B4
B5
B6
